Data taken from patent publication US20150004189A1.
pIC50: −log10 of the molar value.

How the values were obtained:
[1] = target: HLA DP molecule DPB1*1401 (human); experiment: competition vs radiolabeled peptide, purified HLA-DP
[2] = target: HLA DP molecule DPB1*2001 (human); experiment: as above
HLA-DP DPB1*0101 (human) = experiment: inhibition of radiolabeled peptide binding to purified HLA-DP
HLA-DP DPB1*2001 (human) = experiment: as above
HLA-DP DPB1*0201 (human) = experiment: as above
HLA-DP DPB1*0501 (human) = experiment: as above
HLA-DP DPB1*1401 (human) = experiment: as above
HLA-DP DPB1*0402 (human) = experiment: as above
[3] = target: HLA-DQ molecule DQB1*0202 (human); experiment: competition: inhibition of radiolabeled peptide binding to purified HLA
[4] = target: HLA-DQ molecule DQB1*0503 (human); experiment: as above
[5] = target: HLA DP molecule DPB1*2001 (human); experiment: inhibition of radiolabeled peptide binding to purified HLA DP
[6] = target: HLA DP molecule DPB1*1401 (human); experiment: as above
[7] = target: HLA-DR molecule DRB1*0162 (so in the source) (human); experiment: radiolabeled-peptide competition on purified HLA class II
[8] = target: HLA-DQ molecule DQB1*0602 (human); experiment: competition: inhibition of radiolabeled peptide binding to purified HLA
[9] = target: HLA-DQ molecule DQB1*0502 (human); experiment: as above
[10] = target: HLA DP molecule DPB1*0501 (human); experiment: competition vs radiolabeled peptide, purified HLA-DP

| pIC50 (HLA-DP DPB1*0101 (human)) | pIC50 (HLA-DP DPB1*2001 (human)) | pIC50 (HLA-DP DPB1*0501 (human)) | Substance | further results |
| --- | --- | --- | --- | --- |
|  |  |  | Cla h 6 peptide, position 161, … (Peptide ID 3324.0588) | pIC50 [1]: 5.01; pIC50 [2]: 4.53 |
| 5.07 |  |  | Der f 1 (136-150) peptide 3324.0666 |  |
|  | 7.77 |  | Der p 4 (86-100) peptide 3324.0981 | pIC50 (HLA-DP DPB1*0201 (human)): 6.66 |
| 5.79 |  | 5.98 | Bet v 6 (211-225) peptide 3324.0386 |  |
|  |  |  | Alt a 5 peptide, position 51, … (Peptide ID 3324.0065) | pIC50 [1]: 7.30; pIC50 [2]: 5.12 |
|  | 5.05 | 5.65 | Der p 4 (386-400) peptide 3324.0978 |  |
| 5.92 | 6.35 | 5.31 | Der p 1 (136-150) peptide 3324.0829 | pIC50 (HLA-DP DPB1*1401 (human)): 5.03 |
| 6.76 | 6.29 |  | Der p 4 (482-496) peptide 3324.0971 | pIC50 (HLA-DP DPB1*1401 (human)): 4.94; pIC50 (HLA-DP DPB1*0402 (human)): 7.18 |
|  |  |  | Alt a 1 peptide, position 111, Peptide ID 3324.0013 | pIC50 [3]: 5.08; pIC50 [4]: 4.71 |
|  | 8.11 |  | Der p 1 (131-145) peptide 3324.0832 |  |
| 6.55 | 4.89 | 8.66 | Bet v 1 (111-125) peptide 3324.0352 | pIC50 (HLA-DP DPB1*1401 (human)): 5.12 |
| 6.49 | 6.42 | 7.12 | Der p 4 (476-490) peptide 3324.0975 | pIC50 (HLA-DP DPB1*0402 (human)): 7.08 |
| 6.41 |  | 8.48 | Aln g 1 (111-125) peptide 3324.0007 |  |
| 6.04 | 6.25 |  | Sal k 1 1 peptide 191-205, … (Peptide ID 3324.1590) | pIC50 (HLA-DP DPB1*1401 (human)): 5.72 |
|  |  |  | Alt a 1 peptide, position 116 (Peptide ID 3324.0014) | pIC50 [5]: 6.70 |
| 6.85 | 5.46 | 6.62 | Que a 1 peptide 21-35 … (Peptide ID 3324.1588) |  |
|  | 5.30 | 5.12 | Cha o 1 peptide 96-110 … (Peptide ID 3324.0523) | pIC50 (HLA-DP DPB1*1401 (human)): 6.28 |
|  |  | 5.84 | Dac g 4 peptide 1-15 … (Peptide ID 3324.0663) |  |
|  |  |  | Alt a 1 peptide, position 111 (Peptide ID 3324.0013) | pIC50 [6]: 5.36 |
|  |  |  | Alt a 1 peptide 3324.0014 (position 116) | pIC50 [7]: 6.30 |
|  | 5.10 |  | Lol p 2 peptide 51-65 … (Peptide ID 3324.1139) |  |
| 5.39 | 5.23 |  | Bet v 1 (96-110) peptide 3324.0353 | pIC50 (HLA-DP DPB1*1401 (human)): 5.22 |

| pIC50 (HLA-DP DPB1*0101 (human)) | pIC50 (HLA-DP DPB1*2001 (human)) | pIC50 (HLA-DP DPB1*0501 (human)) | Substance | further results |
| --- | --- | --- | --- | --- |
| 6.16 | 4.87 |  | Cup a 1 peptide 71-85 … (Peptide ID 3324.0607) | pIC50 (HLA-DP DPB1*1401 (human)): 5.45 |
| 7.77 | 6.56 | 7.10 | Que a 1 peptide 16-30 … (Peptide ID 3324.1585) |  |
| 7.68 | 5.88 | 7.51 | Que a 1 peptide 141-155 … (Peptide ID 3324.1584) | pIC50 (HLA-DP DPB1*1401 (human)): 7.40 |
|  |  | 4.91 | Lol p 2 peptide 56-70 … (Peptide ID 3324.1140) |  |
|  |  |  | Cla h 5 peptide, position 6, … (Peptide ID 3324.0576) | pIC50 [2]: 6.84 |
| 5.63 | 4.59 |  | Cup s 1 peptide 96-110 … (Peptide ID 3324.0624) |  |
| 7.25 | 5.31 |  | Sal k 1 1 peptide 321-335, … (Peptide ID 3324.1589) |  |
| 5.16 | 4.62 |  | Cup a 1 peptide 66-80 … (Peptide ID 3324.0604) | pIC50 (HLA-DP DPB1*1401 (human)): 7.54 |
|  |  |  | Cla h 8 peptide, position 151, … (Peptide ID 3324.0603) | pIC50 [1]: 7.44 |
| 6.40 | 8.16 |  | Der p 4 (411-425) peptide 3324.0980 | pIC50 (HLA-DP DPB1*1401 (human)): 6.15; pIC50 (HLA-DP DPB1*0402 (human)): 5.82 |
|  |  |  | Alt a 7 peptide, position 190, … (Peptide ID 3324.0080) | pIC50 [1]: 6.03; pIC50 [2]: 7.11 |
|  | 6.51 | 5.40 | Der p 1 (226-240) peptide 3324.0840 | pIC50 (HLA-DP DPB1*0402 (human)): 7.49 |
| 6.49 |  |  | Der p 4 (381-395) peptide 3324.0986 |  |
| 4.81 | 5.53 | 5.46 | Der p 4 (96-110) peptide 3324.0987 |  |
|  | 6.61 |  | Der p 4 (251-265) peptide 3324.0976 |  |
|  |  |  | Alt a 1 peptide 3324.0013 (position 111) | pIC50 [7]: 6.07 |
| 5.79 | 6.00 | 5.30 | Der p 4 (321-335) peptide 3324.0977 |  |
| 5.87 |  | 6.14 | Dac g 2 peptide 16-30 … (Peptide ID 3324.0658) | pIC50 (HLA-DP DPB1*1401 (human)): 4.50 |
|  | 8.09 | 7.29 | Lol p 11 peptide 116-130 … (Peptide ID 3337.0029) | pIC50 (HLA-DP DPB1*1401 (human)): 4.74 |
|  |  |  | Alt a 1 peptide, position 141, Peptide ID 3324.0011 | pIC50 [3]: 4.50; pIC50 [4]: 5.04; pIC50 [8]: 5.31; pIC50 [9]: 5.22 |
|  | 5.59 |  | Aln g 1 (16-30) peptide 3324.0003 | pIC50 (HLA-DP DPB1*0201 (human)): 7.44 |
| 8.04 | 8.46 | 7.89 | Der p 4 (416-430) peptide 3324.0974 |  |

| pIC50 (HLA-DP DPB1*0101 (human)) | pIC50 (HLA-DP DPB1*2001 (human)) | pIC50 (HLA-DP DPB1*0501 (human)) | Substance | further results |
| --- | --- | --- | --- | --- |
|  |  |  | Alt a 6 peptide, position 161, … (Peptide ID 3324.0073) | pIC50 [2]: 5.12 |
|  |  |  | Alt a 1 peptide, position 143 (Peptide ID 3324.0016) | pIC50 [6]: 5.84; pIC50 [5]: 5.06 |
| 6.69 | 6.65 | 9.60 | Lol p 11 peptide 111-125 … (Peptide ID 3324.1138) |  |
| 6.17 | 5.04 |  | Cup s 1 peptide 86-100 … (Peptide ID 3324.0615) |  |
| 5.08 | 4.59 |  | Cup a 1 peptide 316-330 … (Peptide ID 3324.0606) | pIC50 (HLA-DP DPB1*1401 (human)): 6.81 |
|  | 8.48 |  | Bet v 6 (206-220) peptide 3324.0387 | pIC50 (HLA-DP DPB1*1401 (human)): 5.42 |
|  |  |  | Alt a 1 peptide 3324.0015 (position 6) | pIC50 [7]: 6.06 |
| 7.07 |  | 6.31 | Aln g 1 (11-25) peptide 3324.0004 | pIC50 (HLA-DP DPB1*0402 (human)): 5.82 |
|  |  |  | Alt a 1 peptide 3324.0017 (position 11) | pIC50 [7]: 6.02 |
|  |  | 4.45 | Der p 1 (176-190) peptide 3324.0831 |  |
| 6.09 | 4.45 | 6.75 | Cup s 1 peptide 91-105 … (Peptide ID 3324.0618) | pIC50 (HLA-DP DPB1*0402 (human)): 7.12 |
|  |  |  | Alt a 1 peptide, position 141 (Peptide ID 3324.0011) | pIC50 [6]: 5.47; pIC50 [5]: 5.05 |
|  |  |  | Alt a 1 peptide, position 11, Peptide ID 3324.0017 | pIC50 [4]: 6.65; pIC50 [8]: 7.68; pIC50 [9]: 5.10 |
|  |  |  | Alt a 1 peptide, position 6, Peptide ID 3324.0015 | pIC50 [4]: 5.14; pIC50 [9]: 5.15 |
|  |  |  | Alt a 1 peptide, position 11 (Peptide ID 3324.0017) | pIC50 [6]: 6.90; pIC50 [5]: 6.74 |
|  |  |  | Alt a 1 peptide, position 6 (Peptide ID 3324.0015) | pIC50 [5]: 5.68 |
| 6.94 |  | 6.47 | Que a 1 peptide 11-25 … (Peptide ID 3324.1587) |  |
|  |  |  | Alt a 1 peptide, position 116, Peptide ID 3324.0014 | pIC50 [8]: 5.65; pIC50 [9]: 5.05 |
|  |  |  | Alt a 1 peptide, position 143, Peptide ID 3324.0016 | pIC50 [3]: 5.15; pIC50 [8]: 7.15; pIC50 [9]: 5.11 |
|  |  |  | Alt a 7 peptide, position 6, … (Peptide ID 3324.0085) | pIC50 [10]: 7.33; pIC50 [2]: 5.89 |
|  | 7.08 | 7.96 | Cha o 1 (86-100) peptide 3324.0517 |  |
|  | 5.20 |  | Dac g 2 peptide 11-25 … (Peptide ID 3324.0657) | pIC50 (HLA-DP DPB1*1401 (human)): 5.09 |
